These results are taken from PMC4323031 (Malaria Journal, 2015).

For orientation: Kd means a measure of binding affinity in units of concentration. The term koff denotes a measure of how fast the partners let go of each other. By kon is commonly meant a measure of how fast the partners come together.

The assay deals with T1, mE-ERH, fusion protein comprising the EGF-like domains of MSP1-19, MSP8 and MSP4 (Plasmodium falciparum, 3D7 assumed from …, UniProt Q7KWJ2).
T1 construct: source: Nicotiana benthamiana leaves (agroinfiltration, ER-retained), purified
As to the kind of experiment: SPR. To be noted: both partners purified.

B1: recombinant 2.44IgG1 (chimeric mouse-human IgG1:kappa1 mAb) (antibody, V domains shown)
VH: DVQLQESGPGLVKPSQSLSLTCTVTGYSITSDFAWNWIRQFPGNRLEWMGYMGYTGSTSYNPSLRGRISITRDTSKNQFFLQLNSVTTEDTATYYCARGDYYGSRGYFDVWGAGTTVTVSS
VL: EIVLTQSPALMAASPGEKVTITCSVSSSIRSSNLHWYQQKSDTSPKPWIYGTSNLASGVPVRFSGSGSGTSYSLTISTMEAEDAATYYCQQWSSYPFTFGSGTKLEIK
notes: also called recombinant mAb; recombinant antibody
In the case of B1, binding was characterised by a dissociation constant (Kd) of 10.2 nM, the koff stood at 0.000926 s⁻¹ and the kon was 90400 M⁻¹ s⁻¹.
